T1: cynomolgus monkey FAPα on Expi293F cells (cynomolgus monkey (Macaca fascicularis), UniProt Q12884 1-760 (human entry))
T1 sequence: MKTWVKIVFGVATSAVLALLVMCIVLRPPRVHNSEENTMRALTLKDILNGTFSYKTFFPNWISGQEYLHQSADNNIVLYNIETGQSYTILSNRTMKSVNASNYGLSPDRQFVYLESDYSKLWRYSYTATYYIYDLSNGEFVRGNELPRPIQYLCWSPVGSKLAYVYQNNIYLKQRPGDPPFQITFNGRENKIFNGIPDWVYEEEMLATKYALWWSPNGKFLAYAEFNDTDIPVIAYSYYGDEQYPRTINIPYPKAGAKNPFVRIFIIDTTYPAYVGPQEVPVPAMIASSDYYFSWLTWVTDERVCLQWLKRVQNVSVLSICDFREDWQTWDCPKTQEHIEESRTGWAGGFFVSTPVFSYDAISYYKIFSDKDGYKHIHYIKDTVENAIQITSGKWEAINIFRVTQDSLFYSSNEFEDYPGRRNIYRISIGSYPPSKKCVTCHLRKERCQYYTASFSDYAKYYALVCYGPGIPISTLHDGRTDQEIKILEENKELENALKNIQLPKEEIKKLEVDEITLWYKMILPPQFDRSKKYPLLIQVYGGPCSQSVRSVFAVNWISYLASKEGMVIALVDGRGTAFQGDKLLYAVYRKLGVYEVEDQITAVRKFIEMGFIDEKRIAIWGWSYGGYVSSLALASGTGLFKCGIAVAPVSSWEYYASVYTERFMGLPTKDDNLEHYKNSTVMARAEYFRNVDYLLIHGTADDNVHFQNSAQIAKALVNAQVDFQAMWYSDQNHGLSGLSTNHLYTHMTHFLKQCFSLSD

T2: human DR4 (Death Receptor 4), cell surface expressed on human tumor cell lines (human, UniProt O00220 24-468)
T2 construct: also called TNFRSF10A; TRAIL-R1
T2 sequence: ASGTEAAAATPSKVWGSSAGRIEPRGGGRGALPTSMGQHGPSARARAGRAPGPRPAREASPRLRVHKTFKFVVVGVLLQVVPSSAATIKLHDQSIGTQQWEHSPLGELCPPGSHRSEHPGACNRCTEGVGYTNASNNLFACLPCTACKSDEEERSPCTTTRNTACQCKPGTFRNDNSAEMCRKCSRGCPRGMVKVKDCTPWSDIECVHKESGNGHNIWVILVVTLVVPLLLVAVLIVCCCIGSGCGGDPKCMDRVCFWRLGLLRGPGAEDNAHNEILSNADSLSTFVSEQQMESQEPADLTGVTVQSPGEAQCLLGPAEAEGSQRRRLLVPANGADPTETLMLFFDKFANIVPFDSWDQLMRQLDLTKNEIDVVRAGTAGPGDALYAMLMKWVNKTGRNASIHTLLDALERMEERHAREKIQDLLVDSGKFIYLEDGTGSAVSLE


Experiments:
[1] = target: T1, cynomolgus monkey FAPα on Expi293F cells; assay: flow cytometry, Expi293F cells expressing cynomolgus monkey FAPα, n = 3
Description: Binding of BisG1-FAPα-FERL/DR4-FERR, BisG1-FAPα-FEAL/b12-FEAR and IgG1-FAPα-FERL to FAPα of species commonly used for nonclinical toxicology studies was assessed by flow cytometry using Expi293F cells transiently expressing FAPα from different animal species. IgG1-b12 was included as negative control.
Expi293F cells expressing recombinant FAPα from various species (human, cynomolgus monkey, dog, pig, rat or mouse) were seeded (20,000 cells/well) in 96-Well round bottom plates (Greiner Bio-one, Cat #650101). Antibody dilutions were prepared using FACS buffer, consisting of PBS (Capricorn Scientific, Cat #PBS-10XA, diluted to 1×PBS in distilled water)+1% BSA (Roche, Cat #10735086001)+0.02% Sodium Azide (Bio-World, Cat #41920044-3). Plates were centrifuged, supernatant was removed, and cells were resuspended in 100 μL of antibody dilutions (concentration range 30-0.00017 μg/mL with three-fold serial dilutions using FACS buffer) of BisG1-FAPα-FERL/DR4-FERR, BisG1-FAPα-FEAL/b12-FEAR, IgG1-FAPα-FERL and IgG1-b12 and incubated for 30 min at 4° C. […] After 30 min incubation at 4° C., cells were washed with FACS buffer and resuspended in FACS buffer supplemented with TO-PRO-3 Iodide viability marker (Invitrogen, Cat #T3605, diluted 1:4,000). Antibody binding to viable cells (gMFI of PE on TO-PRO-3 negative cells) was analyzed by flow cytometry on a FACS Celesta and FACS_Diva software (first two experiments) or iQue® 3 and FlowJo software (last experiment). gMFI was determined and visualized using GraphPad Prism. Binding curves were analyzed using nonlinear regression analysis. The concentration (pg/mL) at which 50% of the maximal effect was observed (EC₅₀) was derived from the fitted curves.

[2] = target: T2, human DR4 (Death Receptor 4), cell …; assay: flow cytometry, HCT-15 cells, n = 2
[3] = target: T2, human DR4 (Death Receptor 4), cell …; assay: flow cytometry, MDA-MB-231 cells, n = 2
[4] = target: T2, human DR4 (Death Receptor 4), cell …; assay: flow cytometry, MDA-MB-231 cells, N = 2

| Binder | EC50 [1] [µg/mL] | EC50 [2] [µg/mL] | EC50 [3] [µg/mL] | EC50 [4] [µg/mL] | Max MFI (at 90 µg/mL) [4] [MFI] |
| --- | --- | --- | --- | --- | --- |
| BisG1-FAPα-FEAL/b12-FEAR (bispecific antibody, human IgG1, kappa, Fab-arm exchange of IgG1-FAPα-FEAL and IgG1-b12-FEAR) heavy 1: EVQLLESGGGLVQPGGSPRLSCEASGFTFSSYALSWVRQAPGKGLEWVSAISGSGGGRYYADSVKGRFTISRDNSKNTLFLQMNSLRAEDTAVYYCAKEGYSSSGTYWDHWGQGTLVTVSSASTKGPSVFPLAPSSKSTSGGTAALGCLVKDYFPEPVTVSWNSGALTSGVHTFPAVLQSSGLYSLSSVVTVPSSSLGTQTYICNVNHKPSNTKVDKRVEPKSCDKTHTCPPCPAPEFEGGPSVFLFPPKPKDTLMISRTPEVTCVVVAVSHEDPEVKFNWYVDGVEVHNAKTKPREEQYNSTYRVVSVLTVLHQDWLNGKEYKCKVSNKALPAPIEKTISKAKGQPREPQVYTLPPSREEMTKNQVSLTCLVKGFYPSDIAVEWESNGQPENNYKTTPPVLDSDGSFLLYSKLTVDKSRWQQGNVFSCSVMHEALHNHYTQKSLSLSPG light 1: AIQMTQSPSSVSASVGDRVTITCRASQGVSSWLAWYQQKPGRAPKLLIYVASTLQSGVPSRFSGSGSGTDFTLTINSLQPEDFATYYCQQANSFPPTFGQGTRLEMKRTVAAPSVFIFPPSDEQLKSGTASVVCLLNNFYPREAKVQWKVDNALQSGNSQESVTEQDSKDSTYSLSSTLTLSKADYEKHKVYACEVTHQGLSSPVTKSFNRGEC heavy 2: QVQLVQSGAEVKKPGASVKVSCQASGYRFSNFVIHWVRQAPGQRFEWMGWINPYNGNKEFSAKFQDRVTFTADTSANTAYMELRSLRSADTAVYYCARVGPYSWDDSPQDNYYMDVWGKGTTVIVSSASTKGPSVFPLAPSSKSTSGGTAALGCLVKDYFPEPVTVSWNSGALTSGVHTFPAVLQSSGLYSLSSVVTVPSSSLGTQTYICNVNHKPSNTKVDKRVEPKSCDKTHTCPPCPAPEFEGGPSVFLFPPKPKDTLMISRTPEVTCVVVAVSHEDPEVKFNWYVDGVEVHNAKTKPREEQYNSTYRVVSVLTVLHQDWLNGKEYKCKVSNKALPAPIEKTISKAKGQPREPQVYTLPPSREEMTKNQVSLTCLVKGFYPSDIAVEWESNGQPENNYKTTPPVLDSDGSFFLYSRLTVDKSRWQQGNVFSCSVMHEALHNHYTQKSLSLSPG light 2: EIVLTQSPGTLSLSPGERATFSCRSSHSIRSRRVAWYQHKPGQAPRLVIHGVSNRASGISDRFSGSGSGTDFTLTITRVEPEDFALYYCQVYGASSYTFGQGTKLERKRTVAAPSVFIFPPSDEQLKSGTASVVCLLNNFYPREAKVQWKVDNALQSGNSQESVTEQDSKDSTYSLSSTLTLSKADYEKHKVYACEVTHQGLSSPVTKSFNRGEC | 0.35 |  |  |  |  |
| BisG1-b12-FERL/DR4-FERR (bispecific antibody, human IgG1, kappa, lambda, Fab-arm exchange of IgG1-b12-FERL and IgG1-DR4-FERR; also called bsIgG1-ctrl-FERLxDR4-FERR) heavy 1: QVQLVQSGAEVKKPGASVKVSCQASGYRFSNFVIHWVRQAPGQRFEWMGWINPYNGNKEFSAKFQDRVTFTADTSANTAYMELRSLRSADTAVYYCARVGPYSWDDSPQDNYYMDVWGKGTTVIVSSASTKGPSVFPLAPSSKSTSGGTAALGCLVKDYFPEPVTVSWNSGALTSGVHTFPAVLQSSGLYSLSSVVTVPSSSLGTQTYICNVNHKPSNTKVDKRVEPKSCDKTHTCPPCPAPEFERGPSVFLFPPKPKDTLMISRTPEVTCVVVDVSHEDPEVKFNWYVDGVEVHNAKTKPREEQYNSTYRVVSVLTVLHQDWLNGKEYKCKVSNKALPAPIEKTISKAKGQPREPQVYTLPPSREEMTKNQVSLTCLVKGFYPSDIAVEWESNGQPENNYKTTPPVLDSDGSFLLYSKLTVDKSRWQQGNVFSCSVMHEALHNHYTQKSLSLSPG light 1: EIVLTQSPGTLSLSPGERATFSCRSSHSIRSRRVAWYQHKPGQAPRLVIHGVSNRASGISDRFSGSGSGTDFTLTITRVEPEDFALYYCQVYGASSYTFGQGTKLERKRTVAAPSVFIFPPSDEQLKSGTASVVCLLNNFYPREAKVQWKVDNALQSGNSQESVTEQDSKDSTYSLSSTLTLSKADYEKHKVYACEVTHQGLSSPVTKSFNRGEC heavy 2: QVQLQESGPGLVKPSGTLSLTCAVSGGSISSYSWWSWIRQPPGKGLEWIGELYHSGSTNYNPSLKSRVTISVDKSKNQFSLKLRSVTAADTAVYYCVRGVATIDYWGQGTLVTVSSASTKGPSVFPLAPSSKSTSGGTAALGCLVKDYFPEPVTVSWNSGALTSGVHTFPAVLQSSGLYSLSSVVTVPSSSLGTQTYICNVNHKPSNTKVDKRVEPKSCDKTHTCPPCPAPEFERGPSVFLFPPKPKDTLMISRTPEVTCVVVDVSHEDPEVKFNWYVDGVEVHNAKTKPREEQYNSTYRVVSVLTVLHQDWLNGKEYKCKVSNKALPAPIEKTISKAKGQPREPQVYTLPPSREEMTKNQVSLTCLVKGFYPSDIAVEWESNGQPENNYKTTPPVLDSDGSFFLYSRLTVDKSRWQQGNVFSCSVMHEALHNHYTQKSLSLSPG light 2: QSALTQPPSASGSPGQSVTISCTGTSSDVGGYNFVSWYQQDPGKAPKLLIYEVTKRPSGVPDRFSGSKSGNTASLTVSGLQAEDEADYYCSSYAGSNNVMFGGGTKLTVLGQPKAAPSVTLFPPSSEELQANKATLVCLISDFYPGAVTVAWKADSSPVKAGVETTTPSKQSNNKYAASSYLSLTPEQWKSHRSYSCQVTHEGSTVEKTVAPTECS |  | 0.57 | 1 | 0.95 | 7840 |
| IgG1-FAPα-FERL (antibody, Bivalent monoclonal IgG1 kappa) heavy: EVQLLESGGGLVQPGGSPRLSCEASGFTFSSYALSWVRQAPGKGLEWVSAISGSGGGRYYADSVKGRFTISRDNSKNTLFLQMNSLRAEDTAVYYCAKEGYSSSGTYWDHWGQGTLVTVSSASTKGPSVFPLAPSSKSTSGGTAALGCLVKDYFPEPVTVSWNSGALTSGVHTFPAVLQSSGLYSLSSVVTVPSSSLGTQTYICNVNHKPSNTKVDKRVEPKSCDKTHTCPPCPAPEFERGPSVFLFPPKPKDTLMISRTPEVTCVVVDVSHEDPEVKFNWYVDGVEVHNAKTKPREEQYNSTYRVVSVLTVLHQDWLNGKEYKCKVSNKALPAPIEKTISKAKGQPREPQVYTLPPSREEMTKNQVSLTCLVKGFYPSDIAVEWESNGQPENNYKTTPPVLDSDGSFLLYSKLTVDKSRWQQGNVFSCSVMHEALHNHYTQKSLSLSPG light: AIQMTQSPSSVSASVGDRVTITCRASQGVSSWLAWYQQKPGRAPKLLIYVASTLQSGVPSRFSGSGSGTDFTLTINSLQPEDFATYYCQQANSFPPTFGQGTRLEMKRTVAAPSVFIFPPSDEQLKSGTASVVCLLNNFYPREAKVQWKVDNALQSGNSQESVTEQDSKDSTYSLSSTLTLSKADYEKHKVYACEVTHQGLSSPVTKSFNRGEC | 0.16 |  |  |  |  |
| IgG1-DR4-FERR (antibody, V domains shown, Bivalent monoclonal IgG1 lambda) VH: QVQLQESGPGLVKPSGTLSLTCAVSGGSISSYSWWSWIRQPPGKGLEWIGELYHSGSTNYNPSLKSRVTISVDKSKNQFSLKLRSVTAADTAVYYCVRGVATIDYWGQGTLVTVSS VL: QSALTQPPSASGSPGQSVTISCTGTSSDVGGYNFVSWYQQDPGKAPKLLIYEVTKRPSGVPDRFSGSKSGNTASLTVSGLQAEDEADYYCSSYAGSNNVMFGGGTKLTVLG |  | 0.17 | 0.27 | 0.26 |  |
